# According to patent US20120190564A1, “IDENTIFICATION OF PROTEIN BINDING SITES” (priority 2000, published 2012):
# “Also recorded” adds a separate entry of the source. Ends that are not written are not given here. code + = amino-terminal bromo-group; mmt = not defined here
# What was measured:
# Format in all cases: binding
# [1] = test system: Antibody-1; assay: Pepscan ELISA on single or double hFSH peptide loops, Antibody-1; settings: individual loop peptides coupled as a single loop
# Source text: (§1) FIG. 17: Result of Pepscan ELISA with two different antibodies on single or double peptide loops coupled to Pepscan minicards, as described above. Coupled to square-A: Loop peptide-1; Coupled to square-B: first Loop peptide-1 followed by Loop peptide-2; Coupled to square-C: Loop peptide-2; Coupled to square-D: first Loop peptide-2 followed by Loop peptide-1. Loop peptide-1: +KSYNRVTVMGGFKVEZ-conh2 (SEQ ID NO: 63); Loop peptide-2: +LQENPFFSQPGAPILZ-conh2 (SEQ ID NO: 64). The y-axis are optical density values (OD) obtained using a ccd-camera system. Both loop-peptides are derived from human Follicle-Stimulating Hormone (hFSH).
# (§2) Two peptides that constitute two separate parts of a discontinuous epitope were coupled to the surface of a minicard as described above in the legend of FIG. 12 (cf. FIG. 3A and FIG. 4 (example-4)). A cys(mmt) was coupled alone or in combination with a cys(trt) (in a 1:1 ratio) and/or val(mmt) (the cys and val in a 1:1, 1:3, 1:9 etc. ratio). In this way one peptide was coupled (squares A and C) or two peptides with increasing valines in between the cysteines were coupled (squares B and D) (cf. FIG. 4B (example-4), FIG. 17). These four configurations were incubated with two different antibodies.
# [2] = molecular target: lysozyme-biotin (Gallus gallus, UniProt P00698); assay: Loop-loop Matrix-scan of CDR loop-peptide pairs with lysozyme-biotin; settings: lysozyme-biotin 100 ug/ml, in triplo
# lysozyme-biotin, sequence (P00698 19-147): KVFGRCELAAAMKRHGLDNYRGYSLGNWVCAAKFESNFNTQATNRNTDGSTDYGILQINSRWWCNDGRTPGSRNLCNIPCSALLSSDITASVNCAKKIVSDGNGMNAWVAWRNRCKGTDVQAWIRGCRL
# Method: FIG. 16: Result of the loop-loop 15-mer Matrix-scan of loop-loop CDR-regions of antibodies with lysozyme-biotin (100 ug/ml, in triplo). Using 1 μg/ml lysozyme-biotin no binding is observed (not shown). Controls of only streptavidin-peroxidase in between the tests were negative (not shown). Peptides A, B, C, D, E and F: Peptide-A: +ARERDYRLDYZ (SEQ ID NO: 30) (HCDR3 of 1 fdl.pdb); Peptide-B: +ARGDGNYGYZ (SEQ ID NO: 31) (HCDR3 of 1mlb.pdb); Peptide-C: +LHGNYDFDGZ (SEQ ID NO: 32) (HCDR3 of 3hfl.pdb); Peptide-D: +ANWDGDYZ (SEQ ID NO: 33) (HCDR3 of 3hfm.pdb); Peptide-E: +ARRYGNSFDYZ (SEQ ID NO: 34) (HCDR3 of 1qfw.pdb); Peptide-F: +ARQGTAAQPYWYZ (SEQ ID NO: 35) (HCDR3 of 1qfw.pdb) (1fdl.pdb, 1mlb.pdb, 3hfl.pdb and 3hfm.pdb are antibodies that bind lysozyme; 1qfw.pdb are two antibodies that bind human choriogonadotrophin). All peptides have an amino terminal bromo-group (+) and a carboxyterminal lysine-mmt (Z).
# Peptides 1 to 27: Peptide-1: +RASGNIHNYLAZ (SEQ ID NO: 36) (LCDR1 of 1fdl.pdb); Peptide-2: +RASQSISNNLHZ (SEQ ID NO: 37) (LCDR1 of 1mlb.pdb); Peptide-3: +SASSSVNYMYZ (SEQ ID NO: 38) (LCDR1 of 3hfl.pdb); Peptide-4: +RASQSIGNNLHZ (SEQ ID NO: 39) (LCDR1 of 3hfm.pdb); Peptide-5: +RASESVDSYGNSZ (SEQ ID NO: 40) (LCDR1 of 1qfw.pdb); Peptide-6: +ASESVDSYGNSFZ (SEQ ID NO: 41) (LCDR1 of 1qfw.pdb); […]: +SESVDSYGNSFMZ (SEQ ID NO: 42) (LCDR1 of 1qfw.pdb); Peptide-8: +ESVDSYGNSFMQZ (SEQ ID NO: 43) (LCDR1 of 1qfw.pdb); Peptide-9: +RASESVDSYGNSFZ (SEQ ID NO: 44) (LCDR1 of 1qfw.pdb); Peptide-10: +ASESVDSYGNSFMZ (SEQ ID NO: 45) (LCDR1 of 1qfw.pdb); Peptide-11: +SESVDSYGNSFMQZ (SEQ ID NO: 46) (LCDR1 of 1qfw.pdb); Peptide-12: +RASESVDSYGNSFMZ (SEQ ID NO: 47) (LCDR1 of 1qfw.pdb); Peptide-13: +ASESVDSYGNSFMQZ (SEQ ID NO: 48) (LCDR1 of 1qfw.pdb); Peptide-14: +RASESVDSYGNSFMQZ (SEQ ID NO: 49) (LCDR1 of 1qfw.pdb); Peptide-15: +KASETVDSFVSZ (SEQ ID NO: 50) (LCDR1 of 1qfw.pdb); Peptide-16: +LLVYYTTTLADGZ (SEQ ID NO: 51) (LCDR2 of 1fdl.pdb); Peptide-17: +LLIKYVSQSSSGZ (SEQ ID NO: 52) (LCDR2 of 1mlb.pdb); Peptide-18: +RWIYDTSKLASGZ (SEQ ID NO: 53) (LCDR2 of 3hfl.pdb); Peptide-19: +LLIKYASQSISGZ (SEQ ID NO: 54) (LCDR2 of 3hfm.pdb); Peptide-20: +LLIYRASNLESGZ (SEQ ID NO: 55) (LCDR2 of 1qfw.pdb); Peptide-21: LLIFGASNRESGZ (SEQ ID NO: 56) (LCDR2 of 1qfw.pdb); Peptide-22: +QHFWSTPRTZ (SEQ ID NO: 57) (LCDR3 of 1fdl.pdb); Peptide-23: +QQSNSWPRTZ (SEQ ID NO: 58) (LCDR3 of 1mlb.pdb); Peptide-24: +QQWGRNPTZ (SEQ ID NO: 59) (LCDR3 of 3hfl.pdb); Peptide-25: +QQSNSWPYTZ (SEQ ID NO: 60) (LCDR3 of 3hfm.pdb); Peptide-26: +QQSDEYPYMYTZ (SEQ ID NO: 61) (LCDR3 of 1qfw.pdb); Peptide-27: +GQTYNHPYTZ (SEQ ID NO: 62) (LCDR3 of 1qfw.pdb) (1 fdl.pdb, 1mlb.pdb, 3hfl.pdb and 3hfm.pdb are antibodies that bind lysozyme; 1 qfw.pdb are two antibodies that bind human choriogonadotrophin). All peptides have an amioterminal bromo-group (+) and a carboxyterminal lysine-mmt (Z).
# From six different antibodies, the HCDR3-region (complementary determining region three of the antibody heavy chain) was synthesized as synthetic loop-peptides. As an example, four different anti-lysozyme antibodies and two different anti-choriogonadotrophin antibodies were selected: 1fdl.pdb (D1.3), 1mlb.pdb (D44.1), 3hfl.pdb (HyHel-5), 3hfm.pdb (HyHel-10) all anti-lysozyme, and 1qfw.pdb, two anti-human choriogonadotrophin, one anti-alpha and one anti-beta. The synthetic loop peptides were coupled to the minicards as described above. The three-dimensional coordinates (pdb-files) were extracted from the Protein Data Bank (PDB) at www.rcsb.org (RCSB, Research Collaboratory for Structural Bioinformatics) (Berman et al., 2000, The Protein Data Bank. Nucleic Acids Research, 28 pp. 235-242; Bernstein et al. 1977, The protein data bank: A computer-based archival file for macromolecular structures. J. Mol. Biol. 112:535-542). […]
# [3] = test system: Antibody-2; assay: Pepscan ELISA on single or double hFSH peptide loops, Antibody-2; settings: individual loop peptides coupled as single loops
# Source text: as §1, §2
# [4] = test system: monoclonal antibody 210; assay: Standard linear Pepscan on all overlapping 12-mers of hTNF with mAb 210; settings: all overlapping linear 12-mers covering hTNF
# Method: FIG. 10: Standard linear Pepscan on all overlapping synthetic 12-mers covering the linear sequence of hTNF with monoclonal antibody 210 (R&D Systems, MAB210, clone 1825.12, through ITK Diagnostics Uithoorn, The Netherlands). A small peak with the sequence IKSPCQRETPEG (SEQ ID NO: 2) was identified. The y-axis are optical density values (OD) obtained using a ccd-camera system. Rampo, rabbit-anti-mouse peroxidase (DAKO).
# The monoclonal antibody mAb-210 raised against hTNF was tested on linear and loop peptides (mAb-210 was bought from R&D Systems, MAB210, clone 1825.12, through ITK Diagnostics Uithoorn, The Netherlands). Firstly, it was tested in Pepscan on all overlapping linear 12-mers covering hTNF. […] Secondly, it was tested in Pepscan matrix-scan on double 15-mer loop-loop peptides (as described in FIGS. 3 and 4 and explained through FIGS. 11-12). Two loop-regions were labeled: peptide sequence GQGCPSTHVLLT (SEQ ID NO: 65) (squares 65 to 67) and SAIKSPCQRE (SEQ ID NO: 28) (squares 92 to 96) (FIGS. 13, 14). In addition in various squares loop peptide spots were identified corresponding to sequence GQGCPSTHVLLT (SEQ ID NO: 65) (spots 65-67); SAIKSPCQRE (SEQ ID NO: 28) (spots 92-96) and KGDRLSAEINR (SEQ ID NO: 29) (spots 126-129) (FIG. 14). […]
Substance,binding activity with lysozyme-biotin [2],also measured
"+LQENPFFSQPGAPILZ-conh2 ({code +}-LQENPFFSQPGAPILX-NH2; not fully specified; printed as +LQENPFFSQPGAPILZ-conh2) [loop peptide-2, loop-peptide derived from human Follicle-Stimulating Hormone (hFSH)]",,recognition by Antibody-1 [1]: recognized
+LHGNYDFDGZ (SEQ ID NO: 32)+ASESVDSYGNSFMZ (SEQ ID NO: 45): loop-loop peptide pair: loop of HCDR3 of 3hfl.pdb and loop of LCDR1 1qfw.pdb (chain 1 {code +}-LHGNYDFDGK(mmt); chain 2 {code +}-ASESVDSYGNSFMK(mmt); not fully specified; reading uncertain),highest binding activity,
+LHGNYDFDGZ (SEQ ID NO: 32)+LLVYYTTTLADGZ (SEQ ID NO: 51): loop-loop peptide pair: loop of HCDR3 of 3hfl.pdb and loop of LCDR2 1fdl.pdb (chain 1 {code +}-LHGNYDFDGK(mmt); chain 2 {code +}-LLVYYTTTLADGK(mmt); not fully specified; reading uncertain),highest binding activity,
+LHGNYDFDGZ (SEQ ID NO: 32)+ASESVDSYGNSFZ (SEQ ID NO: 41): loop-loop peptide pair: loop of HCDR3 of 3hfl.pdb and loop of LCDR1 1qfw.pdb (chain 1 {code +}-LHGNYDFDGK(mmt); chain 2 {code +}-ASESVDSYGNSFK(mmt); not fully specified; reading uncertain),highest binding activity,
+LHGNYDFDGZ (SEQ ID NO: 32)+RASESVDSYGNSFMQZ (SEQ ID NO: 49): loop-loop peptide pair: loop of HCDR3 of 3hfl.pdb and loop of LCDR1 1qfw.pdb (chain 1 {code +}-LHGNYDFDGK(mmt); chain 2 {code +}-RASESVDSYGNSFMQK(mmt); not fully specified; reading uncertain),highest binding activity,
+LHGNYDFDGZ (SEQ ID NO: 32)+RASESVDSYGNSFZ (SEQ ID NO: 44): loop-loop peptide pair: loop of HCDR3 of 3hfl.pdb and loop of LCDR1 1qfw.pdb (chain 1 {code +}-LHGNYDFDGK(mmt); chain 2 {code +}-RASESVDSYGNSFK(mmt); not fully specified; reading uncertain),highest binding activity,
"+KSYNRVTVMGGFKVEZ-conh2 ({code +}-KSYNRVTVMGGFKVEX-NH2; not fully specified; printed as +KSYNRVTVMGGFKVEZ-conh2) [loop peptide-1, loop-peptide derived from human Follicle-Stimulating Hormone (hFSH)]",,recognition by Antibody-2 [3]: recognized
+LHGNYDFDGZ (SEQ ID NO: 32)+SESVDSYGNSFMQZ (SEQ ID NO: 46): loop-loop peptide pair: loop of HCDR3 of 3hfl.pdb with loop of LCDR1 of 1qfw.pdb (chain 1 {code +}-LHGNYDFDGK(mmt); chain 2 {code +}-SESVDSYGNSFMQK(mmt); not fully specified; reading uncertain),highest binding activity,
IKSPCQRETPEG,,Pepscan binding of monoclonal antibody 210 (optical density) [4]: minor peak; also recorded: small peak
